This note sets out measurements from article doi:10.1101/2025.10.06.680735, “JMJD1B-mediated FEN1 demethylation allows timely switching of Okazaki fragment maturation core enzymes to avoid mutagenic flap ligation by PARP1-LIG3” (bioRxiv, 2025).

The chains are these.
B1: DNA ligase 1 (LIG1), in MEFs (enzyme, mouse (endogenous in MEFs), UniProt P37913 1-916, looked up)
chain: MQRSIMSFFQPTKEGKAKKPEKETPSSIREKEPPPKVALKERNQVVPESDSPVKRTGRKVAQVLSCEGEDEDEAPGTPKVQKPVSDSEQSSPPSPDTCPENSPVFNCSSPMDISPSGFPKRRTARKQLPKRTIQDTLEEQNEDKTKTAKKRKKEEETPKESLAEAEDIKQKEEKEGDQLIVPSEPTKSPESVTLTKTENIPVCKAGVKLKPQEEEQSKPPARGAKTLSSFFTPRKPAVKTEVKQEESGTLRKEETKGTLDPANYNPSKNNYHPIEDACWKHGQKVPFLAVARTFEKIEEVSARLKMVETLSNLLRSVVALSPPDLLPVLYLSLNRLGPPQQGLELGVGDGVLLKAVAQATGRQLESIRAEVAEKGDVGLVAENSRSTQRLMLPPPPLTISGVFTKFCDIARLTGSASMAKKMDIIKGLFVACRHSEARYIARSLSGRLRLGLAEQSVLAALAQAVSLTPPGQEFPTVVVDAGKGKTAEARKMWLEEQGMILKQTFCEVPDLDRIIPVLLEHGLERLPEHCKLSPGVPLKPMLAHPTRGVSEVLKRFEEVDFTCEYKYDGQRAQIHVLEGGEVKIFSRNQEDNTGKYPDIISRIPKIKHPSVTSFILDTEAVAWDREKKQIQPFQVLTTRKRKEVDASEIQVQVCLYAFDLIYLNGESLVRQPLSRRRQLLRENFVETEGEFVFTTSLDTKDTEQIAEFLEQSVKDSCEGLMVKTLDVDATYEIAKRSHNWLKLKKDYLDGVGDTLDLVVIGAYLGRGKRAGRYGGFLLAAYDEESEELQAICKLGTGFSDEELEEHHQSLQALVLPTPRPYVRIDGAVAPDHWLDPSIVWEVKCADLSLSPIYPAARGLVDKEKGISLRFPRFIRVRKDKQPEQATTSNQVASLYRKQSQIQNQQSSDLDSDVEDY
notes: DNA ligase 1, mouse, endogenous in MEFs; source: endogenous, mouse embryonic fibroblasts (fixed cells)
B2: POLD1 (the catalytic and PCNA-binding subunit of Polδ), in MEFs (enzyme, mouse (endogenous in MEFs), UniProt P52431 1-1105, looked up)
chain: MDCKRRQGPGPGVPPKRARGHLWDEDEPSPSQFEANLALLEEIEAENRLQEAEEELQLPPEGTVGGQFSTADIDPRWRRPTLRALDPSTEPLIFQQLEIDHYVGSAPPLPEGPLPSRNSVPILRAFGVTDEGFSVCCHIQGFAPYFYTPAPPGFGAEHLSELQQELNAAISRDQRGGKELSGPAVLAIELCSRESMFGYHGHGPSPFLRITLALPRLMAPARRLLEQGVRVPGLGTPSFAPYEANVDFEIRFMVDADIVGCNWLELPAGKYVRRAEKKATLCQLEVDVLWSDVISHPPEGQWQRIAPLRVLSFDIECAGRKGIFPEPERDPVIQICSLGLRWGEPEPFLRLALTLRPCAPILGAKVQSYEREEDLLQAWADFILAMDPDVITGYNIQNFDLPYLISRAQALKVDRFPFLGRVTGLRSNIRDSSFQSRQVGRRDSKVISMVGRVQMDMLQVLLREHKLRSYTLNAVSFHFLGEQKEDVQHSIITDLQNGNEQTRRRLAVYCLKDAFLPLRLLERLMVLVNNVEMARVTGVPLGYLLTRGQQVKVVSQLLRQAMRQGLLMPVVKTEGSEDYTGATVIEPLKGYYDVPIATLDFSSLYPSIMMAHNLCYTTLLRPGAAQKLGLKPDEFIKTPTGDEFVKSSVRKGLLPQILENLLSARKRAKAELAQETDPLRRQVLDGRQLALKVSANSVYGFTGAQVGKLPCLEISQSVTGFGRQMIEKTKQLVESKYTVENGYDANAKVVYGDTDSVMCRFGVSSVAEAMSLGREAANWVSSHFPSPIRLEFEKVYFPYLLISKKRYAGLLFSSRSDAHDKMDCKGLEAVRRDNCPLVANLVTSSLRRILVDRDPDGAVAHAKDVISDLLCNRIDISQLVITKELTRAAADYAGKQAHVELAERMRKRDPGSAPSLGDRVPYVIIGAAKGVAAYMKSEDPLFVLEHSLPIDTQYYLEQQLAKPLLRIFEPILGEGRAESVLLRGDHTRCKTVLTSKVGGLLAFTKRRNCCIGCRSVIDHQGAVCKFCQPRESELYQKEVSHLNALEERFSRLWTQCQRCQGSLHEDVICTSRDCPIFYMRKKVRKDLEDQERLLQRFGPPGPEAW
notes: POLD1, catalytic subunit of DNA polymerase delta, mouse, endogenous in MEFs; source: endogenous, mouse embryonic fibroblasts (fixed cells)

Bounds are passed on as bounds.

In assay [1] the target is DNA ligase 1 (LIG1), in MEFs (mouse (endogenous in MEFs)) (UniProt P37913). Put plainly: proximity ligation; Duolink PLA on endogenous proteins in fixed FEN1 R192Q MEFs; foci per nucleus.
For assay [2], the target named is proliferating cell nuclear antigen (PCNA), in MEFs (mouse (endogenous in MEFs)) (UniProt P17918). The description is as above.
proliferating cell nuclear antigen (PCNA), in MEFs (mouse (endogenous in MEFs)), sequence (P17918 whole entry): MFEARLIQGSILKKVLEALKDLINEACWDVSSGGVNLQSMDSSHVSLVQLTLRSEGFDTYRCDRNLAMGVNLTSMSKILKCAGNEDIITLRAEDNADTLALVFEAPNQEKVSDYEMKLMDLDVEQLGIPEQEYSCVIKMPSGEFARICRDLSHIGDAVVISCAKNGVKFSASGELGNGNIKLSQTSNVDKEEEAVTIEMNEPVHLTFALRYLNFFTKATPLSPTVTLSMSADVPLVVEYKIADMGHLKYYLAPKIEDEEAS
The target of assay [3] is DNA ligase 1 (LIG1), in MEFs (mouse (endogenous in MEFs)) (UniProt P37913). In words: FRET or BRET; FRET microscopy in fixed FEN1 R192Q MEFs; Alexa Fluor 568 (donor) and Alexa Fluor 647 (acceptor) secondary antibodies; corrected FRET intensity at PCNA foci. Background: BRET reads energy transfer from a luciferase to a nearby fluorophore.
For assay [4] the target is unchanged. In words: proximity ligation; Duolink PLA on endogenous proteins in fixed WT MEFs; foci per nucleus.
In assay [5] the target is proliferating cell nuclear antigen (PCNA), in MEFs (mouse (endogenous in MEFs)) (UniProt P17918). Described as above.
For assay [6], the target named is DNA ligase 1 (LIG1), in MEFs (mouse (endogenous in MEFs)) (UniProt P37913). In words: FRET or BRET; FRET microscopy in fixed Jmjd1b-/- MEFs; Alexa Fluor 568 (donor) and Alexa Fluor 647 (acceptor) secondary antibodies; corrected FRET intensity at PCNA foci.
Assay [7] deals with proliferating cell nuclear antigen (PCNA), in MEFs (mouse (endogenous in MEFs)) (UniProt P17918). In words: proximity ligation; Duolink PLA on endogenous proteins in fixed Jmjd1b-/- MEFs; foci per nucleus.
In assay [8] the target is DNA ligase 1 (LIG1), in MEFs (mouse (endogenous in MEFs)) (UniProt P37913). In words: FRET or BRET; FRET microscopy in fixed WT MEFs; primary antibodies with Alexa Fluor 568 (donor) and Alexa Fluor 647 (acceptor) secondary antibodies; corrected FRET intensity at PCNA foci.
Assay [9] concerns the target T1, proliferating cell nuclear antigen (PCNA), in MEFs (mouse (endogenous in MEFs), UniProt P17918 1-261).
T1 construct: PCNA, mouse, endogenous in MEFs; source: endogenous, mouse embryonic fibroblasts (fixed cells)
Put plainly: proximity ligation; Duolink PLA on endogenous proteins in fixed WT MEFs; foci per nucleus. Conditions: partners not purified.

For assay [10], the target named is Flap endonuclease 1 (FEN1), in MEFs (mouse (endogenous in MEFs)) (UniProt P39749). Described as above.
Flap endonuclease 1 (FEN1), in MEFs (mouse (endogenous in MEFs)), sequence (P39749 whole entry): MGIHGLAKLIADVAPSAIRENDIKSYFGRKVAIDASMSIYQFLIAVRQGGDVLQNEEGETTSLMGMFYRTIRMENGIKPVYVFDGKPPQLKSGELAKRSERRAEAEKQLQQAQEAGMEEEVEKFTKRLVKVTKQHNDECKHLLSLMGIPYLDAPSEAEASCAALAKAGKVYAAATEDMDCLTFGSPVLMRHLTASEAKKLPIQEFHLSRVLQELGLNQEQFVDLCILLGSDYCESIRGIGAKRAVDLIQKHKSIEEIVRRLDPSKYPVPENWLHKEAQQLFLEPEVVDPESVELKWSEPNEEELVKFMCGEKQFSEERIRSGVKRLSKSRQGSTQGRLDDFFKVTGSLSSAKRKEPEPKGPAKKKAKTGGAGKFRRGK
The target in assay [11] is B1. The assay is described as above. The conditions noted are these: partners not purified.
Assay [12] addresses Flap endonuclease 1 (FEN1), in MEFs (mouse (endogenous in MEFs)) (UniProt P39749). Put plainly: FRET or BRET; FRET microscopy in fixed WT MEFs; primary antibodies with Alexa Fluor 568 (donor) and Alexa Fluor 647 (acceptor) secondary antibodies; corrected FRET intensity at PCNA foci.

T1 sequence (P17918 whole entry): as the sequence (P17918 whole entry) above

Turning to “FEN1 R192Q, in FEN1 R192Q MEFs (from UniProt P39749 1-378) (enzyme)”, the PLA foci per nucleus in assay [1] came out at 9.8 foci/nucleus; in assay [2] it was 31.7 foci/nucleus. In assay [3], this molecule gave an FEN1-LIG1 FRET level at PCNA foci, throughout S phase of 2.

In assay [4], “Flap endonuclease 1 (FEN1), in MEFs (from UniProt P39749 1-378) (enzyme)” displayed a PLA foci per MEF (PLA foci per MEF) of 20 and a PLA foci per nucleus of 18.8 foci/nucleus. For the same molecule, in assay [5], the PLA foci per MEF (PLA foci per MEF) amounted to 40 and the PLA foci per nucleus was 70.3 foci/nucleus. In assay [6], this molecule gave an FEN1-LIG1 FRET signal at PCNA foci, early middle S phase of 4.8 and an FEN1-LIG1 FRET signal at PCNA foci, late S phase of 7.4. Further, the PLA foci per nucleus in assay [7] worked out at 76.2 foci/nucleus. In [8], this molecule returned an FEN1-LIG1 FRET level at PCNA foci, throughout S phase of 5.8; an FEN1-LIG1 FRET signal at PCNA foci, early middle S phase of 5.6; an FEN1-LIG1 FRET signal at PCNA foci, late S phase of 6.3; an FRET signal (corrected FRET intensity at PCNA foci) of 18.6.

For B1, the “PLA foci per MEF” value in assay [9] was ~40 PLA foci per MEF.

As to B2, the PLA foci per MEF (PLA foci per MEF) in assay [10] was found to be 20. Also, the “PLA foci per MEF” value was < 5 PLA foci per MEF in [11] and ~40 PLA foci per MEF in assay [9]. This molecule had an FRET signal (corrected FRET intensity at PCNA foci) in assay [12] of 20.1.
